Read-outs that look alike come from different tables or passages of the source.
B1: 6 × His tagged huSIRPγ ECD recombinant protein (domain or fragment)
chain: EEELQMIQPEKLLLVTVGKTATLHCTVTSLLPVGPVLWFRGVGPGRELIYNQKEGHFPRVTTVSDLTKRNNMDFSIRISSITPADVGTYYCVKFRKGSPENVEFKSGPGTEMALGAKPSAPVVLGPAARTTPEHTVSFTCESHGFSPRDITLKWFKNGNELSDFQTNVDPTGQSVAYSIRSTARVVLDPWDVRSQVICEVAHVTLQGDPLRGTANLSEAIRVPPTLEVTQQPMRVGNQVNVTCQVRKFYPQSLQLTWSENGNVCQRETASTLTENKDGTYNWTSWFLVNISDQRDDVVLTCQVKHDGQLAVSKRLALEVTVHQKDQSSDATP
B2: hu1H9 (an analogue of FSI-189, Gilead) (antibody, V domains shown)
VH: QVQLVQSGAEVKKPGASVKVSCKASGYTFTSYWITWVKQAPGQGLEWIGDIYPGSGSTNHIEKFKSKATLTVDTSISTAYMELSRLRSDDTAVYYCATGYGSSYGYFDYWGQGTLVTVSS
VL: DIQMTQSPSSLSASVGDRVTITCRASENIYSYLAWYQQKPGKAPKLLIYTAKTLAEGVPSRFSGSGSGTDFTLTISSLQPEDFATYYCQHQYGPPFTFGQGTKLEIK
B3: HEFLB (an analogue of BI 765063) (antibody, V domains shown)
VH: EVQLVQSGAEVKKPGESLRISCKASGYSFTSYWVHWVRQMPGKGLEWMGNIDPSDSDTHYSPSFQGHVTLSVDKSISTAYLQLSSLKASDTAMYYCVRGGTGTLAYFAYWGQGTLVTVSS
VL: DVVMTQSPLSLPVTLGQPASISCRSSQSLVHSYGNTYLYWFQQRPGQSPRLLIYRVSNRFSGVPDRFSGSGSGTDFTLKISRVEAEDVGVYYCFQGTHVPYTFGGGTKVEIK
B4: 6 × His tagged cynomolgus SIRPα ECD recombinant protein (domain or fragment)
chain: EEELQVIQPEKSVSVAAGDSATLNCTVSSLIPVGPIQWFRGAGPGRELIYNLKEGHFPRVTPVSDPTKRNNMDFSIRISNITPADAGTYYCVKFRKGSPDVELKSGAGTELSVRAKPSAPVVSGPAVRATAEHTVSFTCESHGFSPRDITLKWFKNGNELSDVQTNVDPAGKSVSYSIRSTARVVLTRRDVHSQVICEVAHVTLQGDPLRGTANLSEAIRVPPFLEVTQQSMRADNQVNVTCQVTKFYPQRLQLTWLENGNVSRTEMASALPENKDGTYNWTSWLLVNVSAHRDDVKLTCQVEHDGQPAVNKSFSVKVSAHPKEQGSNTAAENTGTNERN

Legend:
[1] = target: ES004-B5; assay: SPR
[2] = target: T1, 6 × His tagged huSIRPα V1 ECD recombinant protein (human, UniProt P78324 31-373); assay: SPR
T1 sequence (P78324 31-373): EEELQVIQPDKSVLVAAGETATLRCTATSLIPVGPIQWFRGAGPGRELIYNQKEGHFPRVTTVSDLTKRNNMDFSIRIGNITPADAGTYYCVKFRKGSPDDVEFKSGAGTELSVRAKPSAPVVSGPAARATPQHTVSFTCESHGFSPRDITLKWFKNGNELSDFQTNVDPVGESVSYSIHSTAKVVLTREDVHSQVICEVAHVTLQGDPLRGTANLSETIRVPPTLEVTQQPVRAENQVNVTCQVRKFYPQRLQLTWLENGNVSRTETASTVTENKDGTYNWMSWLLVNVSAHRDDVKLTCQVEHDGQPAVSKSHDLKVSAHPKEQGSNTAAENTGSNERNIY

[3] = target: B1; assay: SPR
[4] = target: B1; assay: SPR
[5] = target: T1, 6 × His tagged huSIRPα V1 ECD …; assay: SPR; remark: listed apart in the source
[6] = target: huSIRPα V1 overexpressed on CHOK1/hSIRPα V1 cells (human, UniProt P78324 31-504); assay: FACS; competition with huCD47 ECD
huSIRPα V1 overexpressed on CHOK1/hSIRPα V1 cells, sequence (P78324 31-504): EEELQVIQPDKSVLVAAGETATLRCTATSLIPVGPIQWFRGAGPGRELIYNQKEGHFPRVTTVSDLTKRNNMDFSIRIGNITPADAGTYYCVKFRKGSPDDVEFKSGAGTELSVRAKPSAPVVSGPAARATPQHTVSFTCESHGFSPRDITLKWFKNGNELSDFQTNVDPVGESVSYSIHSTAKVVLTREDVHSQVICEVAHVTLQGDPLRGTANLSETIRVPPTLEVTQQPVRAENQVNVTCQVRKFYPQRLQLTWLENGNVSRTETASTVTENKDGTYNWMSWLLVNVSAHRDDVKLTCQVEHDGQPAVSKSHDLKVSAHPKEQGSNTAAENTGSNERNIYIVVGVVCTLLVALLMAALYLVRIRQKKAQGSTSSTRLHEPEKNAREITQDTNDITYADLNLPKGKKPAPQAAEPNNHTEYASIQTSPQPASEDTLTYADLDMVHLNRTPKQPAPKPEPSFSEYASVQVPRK

[7] = target: huSIRPα V2 overexpressed on CHOK1/hSIRPα V2 cells (human, UniProt P78324 31-504); assay: FACS; competition with huCD47 ECD
huSIRPα V2 overexpressed on CHOK1/hSIRPα V2 cells, sequence (P78324 other isoform, or with tags, fused parts or gaps): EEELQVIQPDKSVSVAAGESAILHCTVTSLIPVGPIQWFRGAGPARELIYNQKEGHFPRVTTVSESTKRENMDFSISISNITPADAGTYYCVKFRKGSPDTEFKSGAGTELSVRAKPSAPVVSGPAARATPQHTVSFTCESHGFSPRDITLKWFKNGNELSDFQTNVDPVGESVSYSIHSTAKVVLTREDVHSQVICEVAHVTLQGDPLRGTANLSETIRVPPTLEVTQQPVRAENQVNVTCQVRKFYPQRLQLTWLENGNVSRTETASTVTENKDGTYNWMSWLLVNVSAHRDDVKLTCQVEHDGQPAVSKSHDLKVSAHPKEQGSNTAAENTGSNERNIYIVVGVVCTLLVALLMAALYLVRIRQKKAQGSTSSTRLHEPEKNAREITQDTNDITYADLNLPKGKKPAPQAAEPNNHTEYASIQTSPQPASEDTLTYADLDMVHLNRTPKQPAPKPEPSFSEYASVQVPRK

[8] = target: ES004-B5; assay: SPR; remark: listed apart in the source

Binder: B1
Kd [1]: 2.81 nM | koff [1]: 0.00422 s⁻¹

Binder: B2
Kd [2]: 1.91 nM | Kd [3]: 20.7 nM | koff [4]: 0.0135 s⁻¹ | koff [5]: 0.00187 s⁻¹ | IC50 [6]: 1.17 nM | IC50 [7]: 6.04 nM

Binder: B3
Kd [2]: 12.8 nM | koff [5]: 0.00631 s⁻¹ | IC50 [6]: 1.29 nM

Binder: B4
Kd [8]: 6.01 nM | koff [8]: 0.00729 s⁻¹

Reference: publication PMC11384143 (2024)
